Source: article PMC2525512

Target: T1, murine OX40-human IgG Fc fusion (extracellular portion) (Mus musculus, UniProt P47741 20-211)
T1 sequence: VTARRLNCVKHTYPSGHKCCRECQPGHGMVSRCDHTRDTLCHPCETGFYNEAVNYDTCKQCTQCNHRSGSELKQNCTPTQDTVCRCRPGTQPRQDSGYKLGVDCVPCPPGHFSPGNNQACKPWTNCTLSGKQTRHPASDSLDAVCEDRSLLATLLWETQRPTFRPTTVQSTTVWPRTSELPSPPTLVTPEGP
Test: filter binding

B1: aptamer 9.8PM (point mutant) (structured_RNA)
RNA: GGGAGGACGAUGCGGCAGUCUGCAUCGUAGGAUUAGCCACCGUAUACUUUCCCACCAGACGACUCGCUGAGGAUCCGAGA
modifications: 2'-fluoro pyrimidines, 2'-OH purines
B1: no binding.
